A protein production outcome set (Wang et al. 2014)

Test: label from the status in PepcDB records

Sequence | protein production
MALHPTDYFRKERIFVDRETCIDNFRRFIQNSNNQDYNALFYYGIAGIGKSKLQHKLQNILNTEYPEMLWVSMDLENDTHRNVSTFLIALRNKIQKKCNVRFYKFNLAHAIFSKKSRPDIPLNKETYPMLKEDGFFYEILNSLNETAFGPFISIPVKRIVDIINQAPGNVRRHFGELPIDINKLESMEAHEIEKKLPGIFAADFTGSLGTNSRACIFIDTYEAIWKGWRGIGSFSEKDKWIRKCLIPNMPGVSWVICGRKQIKSLWIKDEQDWEMCMKEYPIEDLPEEYSEQFLKEYIEEEDIRSVIVKASEGVPCYLNLSVDTYEQVSRIKKPEVKDFPNTKIEVFEKFVKYLDNNEKRTLYILSAPNSWDRNLFKKLINEFNPTYSIYEFSDLIKYSFVKKITDEKFSLHQLMRKNLQEYQDPTYRKDVHLFLHEYYSNKIKDVDVRSITQEHEISLIEAYYHAREVLKFEDLGGWIAKYTEPFNEAGYWKTIYPMIEDFAEILKEKFGPDNIYYGIFVRKLAFLNEDRGKYNEAIFYYQQVLKIFEKNMGKKILENNDLVVDDHSIAMVTNDLANCYLSIGEYEKALTLQQNSLKTVQNKVNKDPLYIALLQQNIALTYQYLGQYNKAMELCQEALTVREACLGEEDLEVAKTAENLAVIHQQLGNYKEAFALAKRALNIREKKLGSKHPLVATNLSSLGVLCIIMGNLEEGLKYNQRAVKIAEERFEGDHISVAETLSNLGATYQYMLRYDDALEAYQRALNITEHSLGLENPKLVNILNNIAETYRKMENYEKALEFYQRALDIARNHLGKEHPTIALIMNNLGRLYMNTKEFDKAHTICQQALDIRGKTLGTDHVDFAITSLDLGIIYGCVGRRDYALPLLEHSLRIFEQKLGSDHIYTKNAKLVVDTLKESR | failed
MFILSAQRLSGTQVFRRLAEGCTGYSVSSGCRQRRRCCPGAPQRPRRVRVNALQLQSGLADPLDPKSEAEVREHLRSNSPAERALGINYARYLDESTRYDILLEMMEDTDPQVRYAAVTQLATVGSHDRQRTLKAVRKILWNTEEDASVRAGAADVLGGLRFHEAFPDLEKLFHESKDWVVRFSIIAALGEMGVREAFPILVEALHANKEPLVQLAAIGALGELGDERARVYLEPLVNSSDASIVERARFALDALDARGSERT | not failed
MTDWQQALDRHVGVGVRTTRDLIRLIQPEDWDKRPISGKRSVYEVAVHLAVLLEADLRIATGATADEMAQFYAVPVLPEQLVDRLDQSWQYYQDRLMADFSTETTYWGVTDSTTGWLLEAAVHLYHHRSQLLDYLNLLGYDIKLDLFE | not failed
MGFPRSIVLIAALLGGAVSGLTACSSFPFWSAGKEEDTDIKDEHADWGPAQFYAEAKHAMMDGSYDKAIKLYEKLEARYPFGDYATQAQIDVAFCYYKNNEPESAIAAVDRFIKLNPTEPHVDYAYYLRGLINYNRGIGFIDRWLPTDSSQRDPGSARDAYNDFETLLNKFPNSVYREDARQRAIALRNNLAMYDIHVADYYMRRRAYVAAIRRSAEVVQKYQRTQAIPHALRIMEDAYRQLDMPQMADDIARVYALNYAEGRLSKDEDYERTVMEEVWDFIGFDK | failed
MNLPKKVRLVEVGPRDGLQNEKQPIEVADKIRLVDDLSAAGLDYIEVGSFVSPKWVPQMAGSAEVFAGIRQRPGVTYAALAPNLKGFEAALESGVKEVAVFAAASEAFSQRNINCSIKDSLERFVPVLEAARQHQVRVRGYISCVLGCPYDGDVDPRQVAWVARELQQMGCYEVSLGDTIGVGTAGATRRLIEAVASEVPRERLAGHFHDTYGQALANIYASLLEGIAVFDSSVAGLGGCPYAKGATGNVASEDVLYLLNGLEIHTGVDMHALVDAGQRICAVLGKSNGSRAAKALLAKA | not failed
PDADPVEIENRIIELCHQFPHGITDQVIQNEMPHIEAQQRAVAINRLLSMGQLDLLRSNTGLLYRIKD | not failed
MIIIELNKRQEHIIQIVKDHGPITGESIAAQLGLTRATLRPDLAILTMAGYLEARPRVGYFYTGKTGGQLLSEAVKKIKVQDYQSRPVVIDKNVSVYDAICTMFLEDVGTLFVVDQSTLLVGVVSRKDLLRASLGKQDLTSLPVNIIMTRMPNIAMCRREDSLYDIAMELIERQIDAMPVVKDTKQGLEVVGRITKTNITRAFVNLVNNE | failed
SNMQLDTLRRIVQEINSSVSLHDSLDIMVNQVADAMKVDVCSIYLLDERNQRYLLMASKGLNPESVGHVSLQLSEGLVGLVGQREEIVNLENASKHERFAYLPETGEEIYNSFLGVPVMYRRKVMGVLVVQNKQPQDFSEAAESFLVTLCAQLSGVIAHAHAVGNIDVFRKPSNGA | not failed
MNQLTQYTITEQEINQSLAKHNNFSKDIGLPGVADAHIVLTNLTSQIGREEPNKVTLTGDANLDMNSLFGSQKATMKLKLKALPVFDKEKGAIFLKEMEVVDATVQPEKMQTVMQTLLPYLNQALRNYFNQQPAYVLREDGSQGEAMAKKLAKGIEVKPGEIVIPFTDLEHHHHHH | not failed
MLVQAIMTSPAITVTASASVAEAARLMLDNRISGLPVVGANGALVGIVSEGDFLRRSELSTERKRSWLLEWLTSSGRIAAEYVRTHGRRVEEVMTAPVSAIAPTASLSDAVRLMERQEIKRLPVVEGGRLVGIVARSDLLRALSQALPATSTSAGDAQIQAAIEAALAKQSWSRNGFIHSRVTDGIAELTGTVFDERERLAAKVAVENVAGVTSVKDQLVWVDPYYGIALPPPDAETSQA | failed
MFACMGVLVKLAAAFFSNTELVFYRSLVGVITTFLVMRAYGMPLVTEHWKSHCWRGLSGLGGVLLFFYCILQLPLATAISLNNTWPLFLAFLAMILLKEEFSWLLAGALVVGFIGVIFLLRPTLAEGQWYLALIGIGSGLFAGIAHFHVRQLSELGESDWLTVFYFTLVCTVATGLWLTFTAFSAVSLQSLTLALGIGVTATLAQLAISRAHRGSNILIVGVLSYSSVLFAGLMDLFFWDARLPVSAWVGMGLIILGGLLSIRGIPVRNSSIVTLDD | failed
MGSSHHHHHHSSGRENLYFQGMKEVEKNEIKRLSDRLDAIRHQQADLSLVEAADKYAELEKEKATLEAEIARLREVHSQKLSKEAQKLMKMPFQRAITKKEQADMGKLKKSVRGLVVVHPMTALGREMGLEEMTGFSKTTF | not failed
MTLPIPSSPPRIKINLPCFQYVGTEMSVDIITSIWFMTLTEFATFMPKRDMCPKPASIPPAAPTVENTVPTTIPQINRRSSITSSSSTTVDNFVIKIYQVYRRMQTLTLEISTTKRSVLNKLKRASLTFQQFKNLLYLCLLEYYKNTKDVKPFLSVSFLEKFVKGKENLPFENEKIKSYREKLKELWEKEIGSDTVKALARQVSKEVKSVLEKWKKGERAFLPRPRKLKKVHKFTVPTNPNMLVDKRKLKRRRENSIVVRLGISFGAVKVKIPQGINIRDVKITWYEDTEVIFRISYEVPKAQKELLKEKWLSIDLGVRNLVSCISNDENLRSFIVDGNPLKSFNQWVNKLSAKLRSEGKERLERKLWRYRKKRIKGFFHQVANLIVRVCLERGIGRVIIPNSLNEEYQKDSEKGARFNQEFRFIPLGELVKMIEYKCELCGIEVVKEDESWTSKVSSVSGNIEVLKEEIPEGEVKKLKFEGRRIKRGLFRDRRLKKVFNADLNGALNLAIKALGKKVREEFLSLRNWLDKLSRPVKVNLFRYPASLPVLWEIAGSKSCSPKGDSEGHFAGSVSDLITFAHF | failed
MHHLILGYGYCGYYLAQELLGHHQQVTVVSRQLKKELELSKLQHISHDLEYPFHWSEPDSIIYYLIPPPSQGTCDTFLQQFLNQSSLNAKKIIYFGSSGVYGNHQGAWVDELSACIIDSPRQQRRLDAEQQWLAYCQQHNKELSLLRIAGIYGPNRIPADAAKSKIPIIKPTEAPFTNHIFVKDLALIAYLLGQKQTTSAVYNVADGNPTHMGELQQTVANALGIESASYESFEQAWEKASPMKREFMRASKRLKIDLLKTALGEDIQFTSLYDAVKQSL | failed
MRGKKRIGLLFLLIAVVVGGGGLLLAQKVLHKTSDTAFCLSCHSMSKPFEEYQGTVHFSNQKGIRAECADCHIPKSGMDYLFAKLKASKDIYHEFVSGKIDSDDKFEAHRQEMAETVWKELKATDSATCRSCHSFDAMDIASQSESAQKMHNKAQKDSETCIDCHKGIAHFPPEIKMDDNAAHELESQAATSVTNGAHIYPFKTSHIGELATVNPGTDLTVVDASGKQPIVLLQGYQMQGSENTLYLAAGQRLALATLSEEGIKALTVNGEWQADEYGNQWRQASLQGALTDPALADRKPLWQYAEKLDDTYCAGCHAPIAADHYTVNAWPSIAKGMGARTSMSENELDILTRYFQYNAKDITEKQ | failed
MPTNAGTSLSSYKHIVAIGTTVKSESLESAAYEIPRKRKMRSDSAAVSGNSVSTPKKLKSHLPSSVPNPGMSEKEVVEDSNEILRYPVNLAVSDCLGTKSKWSPRDEEQMRAVKEALHVSKAPSTILCREDEQIRIFEFVKGCIDQQKAGSLYICGCPGTGKSLSMEKVVQQVGDWSTQAGLPPVDTLSVNCTSLSKTTDIFSKILGEIKPGKNANTNSSPLQHLQNLFSQKQESSSSRMMLIIADEMDYLITKDRGVLYDLFMLTTLPFSRCILIGVANAIDLADRFLPKLKSLNCKPMVITFRAYSKDQILRILQERLRVLSYVAFQPKALELCARKVAAASGDMRKALCVCRSALEILEIETRGSTGPESQGPTPDDSVVRMDHMAAALSKTFKSPVVETIQSLPQHQQIIICAAAKAFRGSKKDATVGELNKLYLEICKSWMISPAGITEFTNMCTVLNDQGILKVGQARRDKLKRVSLRVDESDITFALQVNSLFILFFANP | failed
MSLEESLEQLKRQYLHALPDKKKQIITLWVSLRKNWQSYMLSAVYREVHNLKGSSETFGLTETKDIVDKLELQLKNLLDAPAPTLNLIKGLDTLFHQLLQNNQHYLPAAPVVEAQMQQNPYNPSKARHEYCIAIIEDDNNVGAMITKQLHEFGFNVQHFLNFTDFIKVQYASPFDLILLDLILPDYTEDALFEAACEFEKNNTRVFVLSSRSDFDMRLLAIRANVSEYFVKPAETTLLVRKIHQWLKMSDKPPLKVLLVDDQQSMVDYFSSLLRSHGLMVRGMTKPEQVIPTLEQFEPDLFIFDLYMPGVNGLELARMIRQLDKYTSSPILVLSSDDTMQNKVSIIQAGSDDLISKQTAPSLFVTQVISRAQRGHDIRSSASRDSLTGLLNHTQILVAARHCINLAKRANSSVCIAMLDLDHFKQVNDTYGHSGGDKVLLAFAHLLQQSLRAADFMGRYGGEEFMLVIPDMPAPLVIAKVNAIRESFSNIVFVEEGAEFKVTLSGGLAFSTECHEFQECLLLADKNLYEAKRTGRNRIINTLVK | failed
MENFFNQFFESIGEDKNREGLKETPKRVQELWKFLYKGYKEDPRVALKSAYFQGVCDEMIVAQNIEFYSTCEHHLLPFLGNISVGYIPKEKIVGISAIAKLIEIYSRRLQIQERLTIQIAETFDEIIEPRGVIVVCEAKHLCMSMQGVQKQNAIIKTSVLRGLFKKDSKTRAEFMQLLKS | failed
MHNSIMNKVAVIGLGNIATRHRRNLKSLFPNVELLVMSASGRIPTEEISDSDGIVTSIEALIEANVELVIVASPAPFHAQHSIPLIEAGIPTLIEKPVTTTREDANAIKKALNEHGTPVAIGYCLRYLPSAQKLKILLDHKAIGTLYNAHIEIGQYLPDWRPSKNYRECVSANEKLGGGALFELSHELDYAQWLLGPLALQHAILRSSDELDLQVEDMADILTLTESGAVASIHLDFLQRKAHRQCSFIGSEGRIDWDLIQNQLTLTTAAEAKVIYSEPEWDKNQMYLAMVTDFIQMIKQQPHNCIAVTDASFTVDLISQIKQKAY | failed
